According to article PMC2891831, “Insight into the Mechanisms of Adenovirus Capsid Disassembly from Studies of Defensin Neutralization” (PLoS Pathogens, 2010):
Entries after “also recorded” stand apart in the source; their conditions may differ.

Assays:
19cF = assay: Virus-defensin binding assay, 19cF; parameters: species or system human adenovirus; conditions: studies equivalent to Figure 2B, data not shown
Description: (§1) We then combined the GYAR substitution with the PB substitution in a single construct (PB/GYAR).
To measure HD5 binding to HAdV-5 and -51, HD5 was serially diluted in PBS and mixed with 5 µg purified virus. After 1 h incubation on ice, one half of each sample was separated by ultracentrifugation [209,000×g (avg.) for 2 hrs at 4°C] on a discontinuous gradient consisting of 300 µl of 30% nycodenz and 200 µl of 80% nycodenz in 50 mM NaCl, 20 mM HEPES pH 7.4 using an SW55ti rotor with adaptors (Beckman Coulter, Inc.). The visible virus band was collected. The other half of each sample was used to make a standard curve for quantification. All samples were boiled in reducing loading buffer and separated using a 16% PAGEgel (Expedeon, Inc., San Diego, CA) or 10–20% Tris-Tricine gel (Bio-Rad, Hercules, CA). The gels were stained with Deep Purple (GE Healthcare) and imaged on a Typhoon Trio. Virus bands were quantified using ImageQuant NT software (GE Healthcare). The amount of HD5 in each sample was normalized to protein V and hexon. The amount of HD5 in the centrifuged samples was then quantified against the standard curve using Prism software. Affinity and stoichiometry were estimated from the average data of at least three independent experiments using Prism software.

HAdV-41 = assay: Infection assay (hexon staining), HAdV-41; assay type: cell-based, human adenovirus; conditions: 15 µM HD5, A549 cells
Description: (§2) To determine whether sensitivity to α-defensins is a general property of HAdVs, serotypes representative of HAdV species A–F were tested for infectivity in the presence of 15 µM HD5 or HNP1 (Figure 1). Wild type HAdVs rather than vectors were used for these studies, and infectivity was assessed by staining for hexon production. […] These studies indicate that sensitivity to α-defensins is species specific. In addition, particular HAdV serotypes are not equally sensitive to all defensins, indicating defensin sequence specificity as well.
(§3) Figure 1 Sensitivity to neutralization by alpha-defensins is AdV species specific. HAdVs were incubated with 15 µM HD5 (A) or HNP1 (B) and assessed for infectivity on A549 cells. Data are the mean of the percent infectivity compared to control cells infected with each virus in the absence of defensin for at least three independent experiments ± SD. The upper limit for quantification of this assay is 200%. […]
(§4) Prior to use in this assay, each virus stock was titrated on A549 cells. […] In parallel, wells were infected with two-fold serial dilutions of each virus to establish a standard curve for quantification with an upper limit of 200%. […] Total well fluorescence above background was quantified with ImageJ software. For each virus, samples were quantified by nonlinear regression against the standard curve using Prism software (GraphPad Software, Inc., La Jolla, CA).

19cPB = assay: Infection assay, 19cPB virus chimera; assay type: cell-based, human adenovirus; conditions: 5 µM and 10 µM HD5, A549 cells; at least three independent experiments; neutralized only at 10 µM
Description: The availability of sensitive (e.g., HAdV-5) and resistant (e.g., HAdV-19c) serotypes provided a means to test this HD5 neutralization model by generating virus chimeras. Initially, virus chimeras were constructed by replacing the sequences for fiber, penton base, and hexon in the HAdV-5 genome with the corresponding sequences from HAdV-19c. Consistent with previous studies, [38], the virus chimera containing the HAdV-19c hexon is not viable; however, constructs containing the HAdV-19c fiber (19cF) or penton base (19cPB) are capable of replicating. […] In contrast, the 19cPB virus has an intermediate phenotype.
Figure 6 Neutralization determinants are located in fiber and penton base. A) Schematic of chimeric viruses. […] B) Each of the chimeric viruses was incubated with 5 µM (grey) or 10 µM (black) HD5 and assessed for infectivity on A549 cells. […] The upper limit for quantification of this assay is 200%.
as §4

HAdV-F serotypes = assay: Infection assay (hexon staining), HAdV species F; assay type: cell-based, human adenovirus; conditions: 15 µM HD5, A549 cells, hexon staining at ~48 h, vs. no defensin; upper limit 200%
Description: as §2, §3, §4

HAdV species B2 = assay: Infection assay (hexon staining), HAdV species B2; assay type: cell-based, human adenovirus; conditions: 15 µM HD5, A549 cells, hexon staining at ~48 h, vs. no defensin
Description: as §2, §3, §4

HAdV-19c = assay: Infection assay, HAdV-19c; assay type: cell-based, human adenovirus
Description: Figure 6 Neutralization determinants are located in fiber and penton base. A) Schematic of chimeric viruses. Capsid proteins are depicted in the order in which they are encoded in the virus genome for HAdV-5 (white) and HAdV-19c (grey). The variable residues in fiber (GYAR and DTET) are indicated for each construct. B) Each of the chimeric viruses was incubated with 5 µM (grey) or 10 µM (black) HD5 and assessed for infectivity on A549 cells. Data are the mean of the percent infectivity compared to control cells infected with each virus in the absence of defensin for at least three independent experiments ± SD. The upper limit for quantification of this assay is 200%.
as §1
as §4, with “cells. A virus concentration was chosen to produce 50–70% maximal signal in the absence of defensin as described below.” for “cells.”

B1: HD5: human alpha-defensin; synthetic, obtained from Peptides International; three disulfide bonds (PDB 1ZMP) (peptide, UniProt Q01523 20-94, looked up)
Defensin alpha 5: ESLQERADEATTQKQSGEDNQDLAISFAGNGLSALRTSGSQARATCYCRTGRCATRESLSGVCEISGRLYRLCCR
modifications: Defensin-5
In the case of B1, the “amount of HD5 bound compared to HAdV-5” value (19cF) is reported as “did not detect a reduction in the amount of HD5 bound; also recorded: did not result in a noticeable reduction in overall HD5 binding”, the “sensitivity to HD5” value (HAdV-41) is reported as “resistant” and the “sensitivity to HD5 neutralization” value (19cPB) is reported as “partially neutralized by HD5 but only at the higher concentration tested (10 µM)”. The “sensitivity to neutralization (infectivity)” value (HAdV-F serotypes) was “completely resistant to HD5-mediated neutralization and, in most cases, infection is actually enhanced”, the “sensitivity to neutralization (infectivity)” value (HAdV species B2) was “sensitive” and the “sensitivity to HD5 neutralization” value (HAdV-19c; 5 µM and 10 µM HD5, A549 cells) was “completely resistant to neutralization”. For the same molecule, the “defensin-resistance at higher HD5 concentration” value (HAdV-19c; 20 µM HD5, data not shown) was “confirmed the defensin-resistance”.
